Laboratory results taken from the supplement of paper PMC9112550, “Optimization of the antimicrobial peptide Bac7 by deep mutational scanning” (BMC Biology, 2022).

tested on: Escherichia coli TOP10; assay: shrunken log2 fold change of peptide-encoding DNA abundance (4.5 h post-induction vs induction); higher = less antimicrobial activity (less host growth inhibition); details: time post-induction: 4.5 h; library: site-saturation at positions 5, 18, 19, 20
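Also: peptides expressed intracellularly from a pBAD plasmid library in pooled LB shake-flask culture, induced with 0.3% L-arabinose, DNA abundance read by NGS, three biological replicates, DESeq2 with apeglm shrinkage.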

Row | Sequence | shrunken log2 fold change
1 | RRIRYRPPRLPRPRPRPMCWPRP | -0.213
2 | RRIRFRPPRLPRPRPRPATQPRP | -0.00992
3 | RRIRTRPPRLPRPRPRPIQWPRP | 0.015
4 | RRIRPRPPRLPRPRPRPYMNPRP | -1.01
5 | RRIRNRPPRLPRPRPRPQLMPRP | -0.0332
6 | RRIRGRPPRLPRPRPRPYFSPRP | -0.00993
7 | RRIRYRPPRLPRPRPRPEHWPRP | -0.0026
8 | RRIRVRPPRLPRPRPRPMACPRP | -0.147
9 | RRIRGRPPRLPRPRPRPRLSPRP | 0.313
10 | RRIRLRPPRLPRPRPRPQPDPRP | -0.161
11 | RRIRHRPPRLPRPRPRPNQIPRP | -0.327
12 | RRIRHRPPRLPRPRPRPGVPPRP | 0.191
13 | RRIRSRPPRLPRPRPRPKHDPRP | -0.0942
14 | RRIRARPPRLPRPRPRPSEFPRP | 0.00109
15 | RRIRDRPPRLPRPRPRPIVLPRP | -0.176
16 | RRIRARPPRLPRPRPRPARQPRP | 0.766
17 | RRIRRRPPRLPRPRPRPDVQPRP | -0.0867
18 | RRIRPRPPRLPRPRPRPYFDPRP | -0.561
19 | RRIRTRPPRLPRPRPRPCKWPRP | -0.000493
20 | RRIRGRPPRLPRPRPRPPVYPRP | 0.352
21 | RRIRCRPPRLPRPRPRPWVKPRP | -0.352
22 | RRIRVRPPRLPRPRPRPAQHPRP | 0.151

Row | Sequence | shrunken log2 fold change
23 | RRIRWRPPRLPRPRPRPSWWPRP | 0.2
24 | RRIRKRPPRLPRPRPRPMRVPRP | 0.848
25 | RRIRKRPPRLPRPRPRPNRKPRP | 0.0065
26 | RRIRGRPPRLPRPRPRPLMWPRP | 0.4
27 | RRIRMRPPRLPRPRPRPKMFPRP | 0.0019
28 | RRIRMRPPRLPRPRPRPSRKPRP | 0.148
29 | RRIRPRPPRLPRPRPRPHNDPRP | -0.566
30 | RRIRIRPPRLPRPRPRPGMPPRP | -0.0857
31 | RRIRMRPPRLPRPRPRPFKNPRP | 0.129
32 | RRIRERPPRLPRPRPRPGRSPRP | -0.032
33 | RRIRVRPPRLPRPRPRPTKYPRP | -0.523
34 | RRIRDRPPRLPRPRPRPTTAPRP | 1.3
35 | RRIRNRPPRLPRPRPRPMNPPRP | -0.235
36 | RRIRMRPPRLPRPRPRPAQNPRP | 1.07
37 | RRIRDRPPRLPRPRPRPQGEPRP | -0.0304
38 | RRIRHRPPRLPRPRPRPESDPRP | -0.227
39 | RRIRDRPPRLPRPRPRPKVCPRP | -0.0149
40 | RRIRCRPPRLPRPRPRPPDIPRP | 0.409
41 | RRIRHRPPRLPRPRPRPDDMPRP | -0.11
42 | RRIRARPPRLPRPRPRPENPPRP | 1.14
43 | RRIRHRPPRLPRPRPRPKWVPRP | -0.302
44 | RRIRARPPRLPRPRPRPCTNPRP | 0.109

Row | Sequence | shrunken log2 fold change
45 | RRIRSRPPRLPRPRPRPVSAPRP | 2.53
46 | RRIRWRPPRLPRPRPRPEWHPRP | 0.595
47 | RRIRTRPPRLPRPRPRPCWFPRP | -0.21
48 | RRIRTRPPRLPRPRPRPHYHPRP | -0.853
49 | RRIRARPPRLPRPRPRPPMEPRP | 0.587
50 | RRIRTRPPRLPRPRPRPVFMPRP | -0.25
51 | RRIRCRPPRLPRPRPRPCITPRP | -0.0767
52 | RRIRPRPPRLPRPRPRPLHWPRP | 0.481
53 | RRIRARPPRLPRPRPRPKYDPRP | -0.293
54 | RRIRARPPRLPRPRPRPILMPRP | 0.143
55 | RRIRCRPPRLPRPRPRPAFKPRP | 0.132
56 | RRIRPRPPRLPRPRPRPHHAPRP | -0.125
57 | RRIRDRPPRLPRPRPRPRHSPRP | -0.043
58 | RRIRWRPPRLPRPRPRPVLYPRP | 0.0298
59 | RRIRIRPPRLPRPRPRPYDLPRP | -0.427
60 | RRIRHRPPRLPRPRPRPVTNPRP | -0.222
61 | RRIRRRPPRLPRPRPRPFCFPRP | 0.218
62 | RRIRMRPPRLPRPRPRPMITPRP | -0.0461
63 | RRIRERPPRLPRPRPRPQNIPRP | -0.837
64 | RRIRNRPPRLPRPRPRPIPVPRP | 1.22
65 | RRIRMRPPRLPRPRPRPGILPRP | 0.0644
66 | RRIRLRPPRLPRPRPRPLTIPRP | -0.0053

Row | Sequence | shrunken log2 fold change
67 | RRIRQRPPRLPRPRPRPITSPRP | -0.0775
68 | RRIRWRPPRLPRPRPRPVHAPRP | 0.109
69 | RRIRARPPRLPRPRPRPWRNPRP | -0.0929
70 | RRIRDRPPRLPRPRPRPIGTPRP | 0.208
71 | RRIRLRPPRLPRPRPRPIVGPRP | 0.0604
72 | RRIRGRPPRLPRPRPRPSIKPRP | 0.47
73 | RRIRARPPRLPRPRPRPKNFPRP | 0.251
74 | RRIRYRPPRLPRPRPRPSGMPRP | -0.0611
75 | RRIRPRPPRLPRPRPRPRYGPRP | 0.00536
76 | RRIRQRPPRLPRPRPRPNDHPRP | -0.884
77 | RRIRLRPPRLPRPRPRPWRVPRP | 0.488
78 | RRIRYRPPRLPRPRPRPYCNPRP | -0.515
79 | RRIRLRPPRLPRPRPRPQGVPRP | -0.0316
80 | RRIRPRPPRLPRPRPRPCRSPRP | -0.136
81 | RRIRHRPPRLPRPRPRPRYCPRP | -0.293
82 | RRIRNRPPRLPRPRPRPFYNPRP | -0.484
83 | RRIRYRPPRLPRPRPRPSCCPRP | -0.472
84 | RRIRTRPPRLPRPRPRPPFGPRP | 0.0407
85 | RRIRMRPPRLPRPRPRPKDIPRP | -0.0934
86 | RRIRSRPPRLPRPRPRPRYIPRP | -0.707
87 | RRIRGRPPRLPRPRPRPSPWPRP | 0.392
88 | RRIRLRPPRLPRPRPRPGVMPRP | 0.0751

Row | Sequence | shrunken log2 fold change
89 | RRIRWRPPRLPRPRPRPKVIPRP | -0.0585
90 | RRIRGRPPRLPRPRPRPNTRPRP | 0.528
91 | RRIRGRPPRLPRPRPRPECLPRP | 0.685
92 | RRIRYRPPRLPRPRPRPLFTPRP | -0.962
93 | RRIRTRPPRLPRPRPRPNMAPRP | -0.155
94 | RRIRCRPPRLPRPRPRPYNYPRP | -0.914
95 | RRIRNRPPRLPRPRPRPREVPRP | 0.00782
96 | RRIRVRPPRLPRPRPRPPDYPRP | -0.114
97 | RRIRFRPPRLPRPRPRPSHQPRP | -0.229
98 | RRIRTRPPRLPRPRPRPENRPRP | -0.0266
99 | RRIRARPPRLPRPRPRPDNAPRP | 0.311
100 | RRIRGRPPRLPRPRPRPGICPRP | 0.808
101 | RRIRRRPPRLPRPRPRPNQNPRP | 0.14
102 | RRIRWRPPRLPRPRPRPLLHPRP | 0.493
103 | RRIRCRPPRLPRPRPRPFIFPRP | -0.425
104 | RRIRHRPPRLPRPRPRPASGPRP | 0.368
105 | RRIRIRPPRLPRPRPRPTLLPRP | -0.374
106 | RRIRTRPPRLPRPRPRPDKTPRP | -0.108
107 | RRIRTRPPRLPRPRPRPNPVPRP | -0.0168
108 | RRIRERPPRLPRPRPRPNHFPRP | -0.799
109 | RRIRTRPPRLPRPRPRPVMLPRP | -0.157
